From PMC8464078

Legend:
[1] = target: Xenopus Rif1–CTD S2058D (Xenopus); test: pull-down
[2] = target: Xenopus Rif1–CTD S2058A (Xenopus); test: pull-down

Q: “protein phosphatase 1 (PP1), gamma catalytic subunit (from UniProt P36874 1-323) (enzyme)” was tested. Which PP1 bound, percent of wild type Rif1–CTD [1] did it give?
A: The PP1 bound, percent of wild type Rif1–CTD was 9%.

Q: And the PP1 bound, percent of wild type Rif1–CTD [2]?
A: Its PP1 bound, percent of wild type Rif1–CTD is 54%.
